Test results: publication PMC11722253

Experiments:
[1] = molecular target: T1, SPbeta integrase-RDF fusion (SprA-SprB) (Bacillus subtilis phage SPbeta, UniProt O32006 1-545+=TSGSGGSGGSGGSGRSGT+O34850:2-58, internal_change); test: SEC
T1 sequence: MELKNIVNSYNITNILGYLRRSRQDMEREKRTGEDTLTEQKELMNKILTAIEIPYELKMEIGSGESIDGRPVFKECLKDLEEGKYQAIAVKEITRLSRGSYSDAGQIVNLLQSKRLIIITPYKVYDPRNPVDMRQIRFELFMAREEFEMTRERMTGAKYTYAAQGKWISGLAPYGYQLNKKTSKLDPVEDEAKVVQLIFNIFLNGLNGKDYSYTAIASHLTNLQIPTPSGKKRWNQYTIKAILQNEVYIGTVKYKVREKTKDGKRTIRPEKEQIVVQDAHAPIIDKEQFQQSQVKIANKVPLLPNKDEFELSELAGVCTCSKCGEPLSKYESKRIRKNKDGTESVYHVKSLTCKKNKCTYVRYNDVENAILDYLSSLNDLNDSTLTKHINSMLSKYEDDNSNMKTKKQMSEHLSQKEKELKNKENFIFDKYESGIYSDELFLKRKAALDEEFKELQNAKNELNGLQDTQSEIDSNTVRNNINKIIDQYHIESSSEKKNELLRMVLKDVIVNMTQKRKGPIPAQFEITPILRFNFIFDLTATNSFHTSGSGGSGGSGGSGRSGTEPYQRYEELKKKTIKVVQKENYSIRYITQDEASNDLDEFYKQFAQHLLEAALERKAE

[2] = molecular target: T2, SPbeta integrase (SprA) (Bacillus subtilis phage SPbeta, UniProt O32006 1-545); test: SEC
T2 sequence: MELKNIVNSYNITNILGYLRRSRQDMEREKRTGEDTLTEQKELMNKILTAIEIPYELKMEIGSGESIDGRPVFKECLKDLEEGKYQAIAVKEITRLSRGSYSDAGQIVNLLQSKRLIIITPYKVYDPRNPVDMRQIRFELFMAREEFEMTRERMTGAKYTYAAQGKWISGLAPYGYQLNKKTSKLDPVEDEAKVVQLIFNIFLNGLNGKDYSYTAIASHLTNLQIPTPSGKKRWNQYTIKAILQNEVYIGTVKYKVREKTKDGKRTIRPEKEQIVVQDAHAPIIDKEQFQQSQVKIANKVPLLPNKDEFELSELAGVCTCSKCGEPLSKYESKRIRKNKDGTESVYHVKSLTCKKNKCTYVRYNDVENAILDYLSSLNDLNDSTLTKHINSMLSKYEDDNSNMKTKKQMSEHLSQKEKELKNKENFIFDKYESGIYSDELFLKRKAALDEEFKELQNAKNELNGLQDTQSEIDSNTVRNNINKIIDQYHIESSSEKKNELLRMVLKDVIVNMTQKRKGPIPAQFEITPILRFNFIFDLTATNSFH

B1: attPmm (dsDNA)
DNA 1: AAAAAAAAGGTAGTAAGTATCTTAAAAAACAGATTTAGCTGTATATTAAGATACTTACTAC
DNA 2: GTAGTAAGTATCTTAATATACAGCTTTATCTGTTTTTTAAGATACTTACTACTTTTTTTTT
binding result [1]: binds | binding result [2]: binds
